Tests used:
[1] = test system: full-length synthetic Tat protein (72 amino acids), unmodified
[2] = test system: histones purified from calf thymus

## recombinant G9a (Upstate)
[1]
  in vitro methylation with radiolabeled SAM, autoradiography: Incubation with the lysine methyltransferase G9a did not result in methylation of Tat
[2]
  in vitro methylation with radiolabeled SAM, autoradiography: led to the successful methylation of histones as expected
